Data on 2 molecules can be found in patent publication EP3444273A1 (Medicinal Bioconvergence Research Center, dated 2019).

The target of assay [1] is T1, BSA-conjugated AIMP2-DX2 antigen peptide (human, not fully specified (residue 12); also: C-terminal Cys conjugated to BSA carrier).
T1 construct: The BSA carrier is not written as a chain; also called AIMP2-DX2 antigen peptide (the same peptide used in the rabbit immunization, conjugated to BSA)
T1 peptide: GHVQDYGALKDC
In words: ELISA, plate coated with BSA-conjugated antigen peptide, periplasmic extract.

In assay [2] the target is T2, wild-type AIMP2 protein (human, UniProt Q13155 1-320).
T2 construct: Endogenous protein of H460 cell lysate; also called wild-type (WT) AIMP2
T2 sequence (looked up): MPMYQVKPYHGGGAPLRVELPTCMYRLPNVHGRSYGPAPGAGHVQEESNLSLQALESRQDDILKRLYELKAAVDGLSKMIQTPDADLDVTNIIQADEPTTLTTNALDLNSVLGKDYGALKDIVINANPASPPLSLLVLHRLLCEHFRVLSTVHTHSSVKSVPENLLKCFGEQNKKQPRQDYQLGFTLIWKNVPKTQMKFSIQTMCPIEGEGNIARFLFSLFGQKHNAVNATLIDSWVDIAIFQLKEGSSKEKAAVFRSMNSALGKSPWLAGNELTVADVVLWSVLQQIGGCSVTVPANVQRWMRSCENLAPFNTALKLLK
In words: Western blot of H460 cell lysate.

Assay [3] addresses T3, AIMP2-DX2 antigen peptide (human, not fully specified).
T3 construct: Used in solution for pre-adsorption in Western blots (100 ug/ml) and as analyte in SPR
T3 peptide: GHVQDYGALKD
In words: antigen pre-adsorption, Western blot of HEK293T lysate, peptide at 100 ug/ml.

The target of assay [4] is T3, AIMP2-DX2 antigen peptide. In words: SPR, H5 IgG coated on CM5 chip, peptide flowed at various concentrations.

Ends that are not written are not given here.

B1: H5 Fab (Fab, V domains shown)
VH: QEQLVESGGGLVTPGGTLTLTCTASGFTISSYHMTWVRQAPGKGLEWIGVISNSGGTSYANWAKGRFTISKTSTTVDLKITSPTTEDTATYFCVRGVPGINSNLWGQGTLVTISS
VL: AQVLTQTPSSVSAAVGGTVTINCQSSQSVYSGNWLAWYQQKPGQPPKLLIYSTSTLASGVPSRFKGSGSGTQFTLTVSDLECDDAATYYCAGDYDGYKNAFGGGTKVVVKR
notes: Expressed from pComb3XTT in E. coli and used as periplasmic extract; Detected with anti-HA tag or anti-human Fab secondary antibody, so a tag may be present; also called antibody (Fab) of clone H5; rabbit/human chimeric Fab
Consider B1, for which the binding result in assay [1] is listed as “binds”; in assay [2], “no binding”; in assay [3], “binds”.

B2: H5 IgG antibody (antibody, V domains shown)
VH: B1 VH
VL: B1 VL
notes: also called H5 antibody (IgG); H5 antibody
As to B2, in assay [4], the binding result is “binds”.
